Test results as given in publication PMC11053023 (Nature Communications, 2024).

How the values were obtained:
[1] = molecular target: T1, FEM1B-EB-EC ternary complex (human, UniProt Q9UK73 1-627; Q15370 1-118; Q15369 17-112); assay: ITC; peptides (0.5-1 mM) titrated into 50 μM protein in the cell, 25 °C; 20 mM Tris, 200 mM NaCl, pH 7.5, 1 mM EDTA; one-site binding model; details: both partners purified
T1 construct: FEM1B, human, full-length (FEM1B^FL); elongin B (EB, ELOB), human; elongin C (EC, ELOC), human; written as one protomer; also called FEM1B-elongin B-elongin C; FEM1B-ELOB-ELOC; source: E. coli BL21(DE3), co-expressed, purified (Ni-NTA, SEC); copies: + +

[2] = molecular target: T2, FEM1B-EB-EC ternary complex with FEM1B D356A/V391A/Q394A/F501A/H502A (human, UniProt Q9UK73 1-627; Q15370 1-118; Q15369 17-112, D356A | V391A | Q394A | F501A | H502A); assay: ITC; SUMO fusion peptides (0.5-1 mM) titrated into 50 μM FEM1B-EB-EC in the cell, 25 °C, 20 mM Tris, 200 mM NaCl, pH 7.5, 1 mM EDTA; one-site binding model; details: both partners purified
T2 construct: FEM1B, human, full length, quintuple mutant of the aromatic (psi) pocket; elongin B (EB, ELOB), human; elongin C (EC, ELOC), human; also called 5A mutant; FEM1BFL-EB-EC D356A/V391A/Q394A/F501A/H502A; source: E. coli BL21(DE3), purified in the same way as the WT protein; copies: + +

Row | Kd [1] | stoichiometry N [2] | Kd [2] | Binder
1 | > 50 µM | – | – | KKHSLDLLLRHLSP [CCDC89 C-degron variant with deletion of nine residues in the linker region]
2 | – | 0.46 | – | KKRLLLGLDR (CDK5R1, human, C-terminal 10 residues; also called CDK5R1 10-mer; 10-aa CDK5R1 C-degron; source: E. coli BL21(DE3), purified (Ni-NTA; SEC for ITC); not shown: SUMO with (GGGS)2 linker, N-terminal, kept) [SUMO-(GGGS)2-CDK5R1 298-307 WT]
3 | – | 0.16 | 5.7 ± 0.8 µM | VFSDLKNESGQEDKKRLLLGLDR (CDK5R1, human, C-terminal 23 residues; also called CDK5R1 23-mer; 23-aa CDK5R1 C-degron; source: E. coli BL21(DE3), purified (Ni-NTA; SEC for ITC); not shown: SUMO with (GGGS)2 linker, N-terminal, kept) [SUMO-(GGGS)2-CDK5R1 285-307 WT]
4 | > 500 µM | – | – | KAADHLHKFHENDNGAAAGDLWQ [CUX1 C-degron F-22A, SUMO fusion]
